{"source": "patent US20160002331A1", "about": "(Pfizer, published 2016)", "key": {"[1]": {"target": "T1, full-length human Notch1 expressed on the cell surface (human, UniProt P46531 19-2555)", "T1 sequence (P46531 19-2555)": "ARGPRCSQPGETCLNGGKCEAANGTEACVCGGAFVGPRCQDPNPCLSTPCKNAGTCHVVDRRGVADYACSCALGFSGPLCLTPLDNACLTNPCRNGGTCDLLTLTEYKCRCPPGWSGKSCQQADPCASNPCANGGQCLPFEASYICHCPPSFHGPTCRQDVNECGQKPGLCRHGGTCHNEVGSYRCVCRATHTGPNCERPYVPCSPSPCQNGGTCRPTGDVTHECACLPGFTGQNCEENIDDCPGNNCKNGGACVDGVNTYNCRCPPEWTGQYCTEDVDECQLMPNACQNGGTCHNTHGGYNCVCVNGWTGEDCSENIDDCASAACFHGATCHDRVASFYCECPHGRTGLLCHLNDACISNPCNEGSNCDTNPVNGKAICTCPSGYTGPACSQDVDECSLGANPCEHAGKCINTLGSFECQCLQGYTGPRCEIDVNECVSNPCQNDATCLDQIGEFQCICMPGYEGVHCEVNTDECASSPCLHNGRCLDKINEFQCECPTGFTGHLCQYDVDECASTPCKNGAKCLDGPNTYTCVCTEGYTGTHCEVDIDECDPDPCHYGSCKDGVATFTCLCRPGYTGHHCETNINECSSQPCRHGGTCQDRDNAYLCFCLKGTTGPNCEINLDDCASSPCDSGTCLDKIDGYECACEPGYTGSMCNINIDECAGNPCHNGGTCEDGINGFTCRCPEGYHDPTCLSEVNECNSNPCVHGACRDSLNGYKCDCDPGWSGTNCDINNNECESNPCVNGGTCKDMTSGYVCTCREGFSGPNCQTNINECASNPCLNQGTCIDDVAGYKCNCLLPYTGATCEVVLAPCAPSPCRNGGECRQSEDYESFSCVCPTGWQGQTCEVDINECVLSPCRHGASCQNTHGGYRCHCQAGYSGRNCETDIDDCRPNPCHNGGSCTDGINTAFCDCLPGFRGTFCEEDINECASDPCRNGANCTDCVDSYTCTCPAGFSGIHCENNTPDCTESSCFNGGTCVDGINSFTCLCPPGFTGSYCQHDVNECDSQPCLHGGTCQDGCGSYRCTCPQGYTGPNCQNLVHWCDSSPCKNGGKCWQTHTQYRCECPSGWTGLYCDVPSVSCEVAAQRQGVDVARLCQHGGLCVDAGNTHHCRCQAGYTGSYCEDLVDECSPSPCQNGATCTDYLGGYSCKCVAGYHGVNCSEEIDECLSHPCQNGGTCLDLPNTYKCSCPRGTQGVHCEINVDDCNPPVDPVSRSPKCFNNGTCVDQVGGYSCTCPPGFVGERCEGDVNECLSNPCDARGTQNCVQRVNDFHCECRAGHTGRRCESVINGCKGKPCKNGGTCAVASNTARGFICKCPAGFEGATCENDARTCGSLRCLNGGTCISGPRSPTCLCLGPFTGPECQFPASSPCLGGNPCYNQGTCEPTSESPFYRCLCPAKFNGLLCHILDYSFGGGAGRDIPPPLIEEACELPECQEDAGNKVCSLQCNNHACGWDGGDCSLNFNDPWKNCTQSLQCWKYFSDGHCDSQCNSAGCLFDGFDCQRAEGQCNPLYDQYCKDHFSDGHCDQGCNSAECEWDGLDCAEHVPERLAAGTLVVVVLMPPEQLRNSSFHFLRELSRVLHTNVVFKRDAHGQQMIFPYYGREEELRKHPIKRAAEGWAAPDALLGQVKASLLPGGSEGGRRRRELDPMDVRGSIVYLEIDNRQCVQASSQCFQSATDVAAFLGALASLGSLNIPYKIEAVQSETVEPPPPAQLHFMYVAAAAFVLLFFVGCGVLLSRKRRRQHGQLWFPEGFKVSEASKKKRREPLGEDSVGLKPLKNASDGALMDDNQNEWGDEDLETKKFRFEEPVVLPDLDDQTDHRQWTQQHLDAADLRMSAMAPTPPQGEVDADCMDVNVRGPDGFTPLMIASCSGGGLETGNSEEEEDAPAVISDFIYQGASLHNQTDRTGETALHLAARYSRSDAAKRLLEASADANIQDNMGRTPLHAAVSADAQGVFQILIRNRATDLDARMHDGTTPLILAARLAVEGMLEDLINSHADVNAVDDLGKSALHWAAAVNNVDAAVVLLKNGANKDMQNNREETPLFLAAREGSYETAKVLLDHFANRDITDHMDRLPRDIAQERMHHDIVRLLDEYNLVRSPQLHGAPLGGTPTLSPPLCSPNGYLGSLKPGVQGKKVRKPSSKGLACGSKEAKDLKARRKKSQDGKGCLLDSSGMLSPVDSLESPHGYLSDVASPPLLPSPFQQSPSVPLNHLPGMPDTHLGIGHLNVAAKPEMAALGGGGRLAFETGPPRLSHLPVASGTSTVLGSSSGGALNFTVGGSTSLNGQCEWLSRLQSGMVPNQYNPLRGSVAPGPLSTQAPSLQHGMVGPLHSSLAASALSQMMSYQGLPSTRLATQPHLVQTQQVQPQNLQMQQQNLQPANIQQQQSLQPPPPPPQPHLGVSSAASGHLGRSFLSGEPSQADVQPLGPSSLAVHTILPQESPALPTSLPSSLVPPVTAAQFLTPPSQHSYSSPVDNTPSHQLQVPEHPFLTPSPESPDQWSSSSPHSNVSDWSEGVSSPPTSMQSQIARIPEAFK", "experiment": "cell-based or functional assay"}, "[2]": {"target": "T1, full-length human Notch1 expressed on …", "experiment": "cell-based or functional assay", "remark": "listed apart in the source"}, "[3]": {"target": "full-length mouse Notch1 expressed on the cell surface of U-2 OS cells (mouse, UniProt Q01705 19-2531)", "experiment": "cell-based or functional assay"}, "[4]": {"target": "T2, full-length human Notch3 expressed on U-2 OS cell surface (human, UniProt Q9UM47 40-2321)", "T2 construct": "whole, on cells; also called Notch3 U2-OS cells; NotchS U-2 OS cells", "T2 sequence (Q9UM47 40-2321)": "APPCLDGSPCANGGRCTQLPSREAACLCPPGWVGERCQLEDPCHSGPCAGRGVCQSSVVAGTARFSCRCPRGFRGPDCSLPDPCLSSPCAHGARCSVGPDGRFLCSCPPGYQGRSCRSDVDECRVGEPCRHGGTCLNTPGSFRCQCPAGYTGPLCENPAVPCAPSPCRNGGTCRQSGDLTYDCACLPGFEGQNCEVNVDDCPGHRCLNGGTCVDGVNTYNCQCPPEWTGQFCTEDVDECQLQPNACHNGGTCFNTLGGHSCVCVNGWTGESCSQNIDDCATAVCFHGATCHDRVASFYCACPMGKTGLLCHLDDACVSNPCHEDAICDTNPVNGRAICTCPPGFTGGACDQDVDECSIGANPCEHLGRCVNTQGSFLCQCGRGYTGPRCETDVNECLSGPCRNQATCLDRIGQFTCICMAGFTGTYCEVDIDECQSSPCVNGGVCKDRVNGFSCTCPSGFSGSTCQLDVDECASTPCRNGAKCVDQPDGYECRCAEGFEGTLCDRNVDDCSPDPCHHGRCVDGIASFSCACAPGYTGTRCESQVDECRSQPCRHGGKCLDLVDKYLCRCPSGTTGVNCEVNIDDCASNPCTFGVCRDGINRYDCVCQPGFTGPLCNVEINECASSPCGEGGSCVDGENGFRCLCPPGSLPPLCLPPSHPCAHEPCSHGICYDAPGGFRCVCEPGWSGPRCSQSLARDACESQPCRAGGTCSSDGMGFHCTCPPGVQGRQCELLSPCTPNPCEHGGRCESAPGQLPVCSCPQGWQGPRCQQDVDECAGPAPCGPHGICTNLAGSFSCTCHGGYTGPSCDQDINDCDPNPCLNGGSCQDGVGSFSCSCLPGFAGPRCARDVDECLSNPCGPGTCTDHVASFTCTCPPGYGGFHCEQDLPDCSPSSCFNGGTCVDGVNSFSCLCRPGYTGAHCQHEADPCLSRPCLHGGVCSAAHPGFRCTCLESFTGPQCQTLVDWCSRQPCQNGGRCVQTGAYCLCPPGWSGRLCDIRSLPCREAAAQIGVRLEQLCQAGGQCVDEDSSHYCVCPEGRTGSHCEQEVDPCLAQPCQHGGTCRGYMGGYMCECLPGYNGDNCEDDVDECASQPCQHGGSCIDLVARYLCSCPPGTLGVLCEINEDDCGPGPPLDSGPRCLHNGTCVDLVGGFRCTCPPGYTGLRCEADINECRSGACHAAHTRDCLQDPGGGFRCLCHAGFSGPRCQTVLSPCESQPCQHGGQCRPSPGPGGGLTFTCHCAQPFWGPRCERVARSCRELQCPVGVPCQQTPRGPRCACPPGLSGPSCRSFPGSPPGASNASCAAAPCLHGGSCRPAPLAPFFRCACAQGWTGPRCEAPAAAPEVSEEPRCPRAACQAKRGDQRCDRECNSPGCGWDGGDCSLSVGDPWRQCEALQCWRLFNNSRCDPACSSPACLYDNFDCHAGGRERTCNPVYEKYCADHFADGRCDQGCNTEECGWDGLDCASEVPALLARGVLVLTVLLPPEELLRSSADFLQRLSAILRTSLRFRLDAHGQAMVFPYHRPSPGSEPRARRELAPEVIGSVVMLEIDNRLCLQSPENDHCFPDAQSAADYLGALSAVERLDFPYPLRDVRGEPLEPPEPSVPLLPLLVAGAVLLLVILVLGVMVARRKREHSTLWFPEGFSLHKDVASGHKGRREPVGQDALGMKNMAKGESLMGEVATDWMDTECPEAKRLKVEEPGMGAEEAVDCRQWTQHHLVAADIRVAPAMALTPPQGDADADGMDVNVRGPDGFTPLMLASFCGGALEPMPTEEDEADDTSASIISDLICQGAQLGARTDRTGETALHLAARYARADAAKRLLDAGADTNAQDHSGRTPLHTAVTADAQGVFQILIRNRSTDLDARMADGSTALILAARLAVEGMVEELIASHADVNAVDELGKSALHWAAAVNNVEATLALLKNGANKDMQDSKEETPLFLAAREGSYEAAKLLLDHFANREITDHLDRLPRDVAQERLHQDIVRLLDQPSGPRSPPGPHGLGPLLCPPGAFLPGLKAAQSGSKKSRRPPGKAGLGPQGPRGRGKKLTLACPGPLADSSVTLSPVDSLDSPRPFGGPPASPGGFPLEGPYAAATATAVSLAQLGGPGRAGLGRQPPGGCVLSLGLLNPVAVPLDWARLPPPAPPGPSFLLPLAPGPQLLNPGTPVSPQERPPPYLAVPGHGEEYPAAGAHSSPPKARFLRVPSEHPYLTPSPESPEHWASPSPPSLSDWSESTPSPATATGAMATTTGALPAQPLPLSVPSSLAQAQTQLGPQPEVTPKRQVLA", "experiment": "binding to Notch3 U-2 OS cells (N/B represents non-binding)"}, "[5]": {"target": "T3, human Notch1 NRR_Avi_His recombinant protein (human, UniProt P46531 1434-1737)", "T3 construct": "Secreted from CHO-PACE cells; cleaved at S1 into an N-terminal ~26 kDa half (LNR-A, B, C, HD1) and a C-terminal ~12 kDa half (HD2 and tag) that stay associated non-covalently; written here as one chain; also called recombinant human Notch1 NRR; human Notch1 NRR immunogen", "T3 sequence": "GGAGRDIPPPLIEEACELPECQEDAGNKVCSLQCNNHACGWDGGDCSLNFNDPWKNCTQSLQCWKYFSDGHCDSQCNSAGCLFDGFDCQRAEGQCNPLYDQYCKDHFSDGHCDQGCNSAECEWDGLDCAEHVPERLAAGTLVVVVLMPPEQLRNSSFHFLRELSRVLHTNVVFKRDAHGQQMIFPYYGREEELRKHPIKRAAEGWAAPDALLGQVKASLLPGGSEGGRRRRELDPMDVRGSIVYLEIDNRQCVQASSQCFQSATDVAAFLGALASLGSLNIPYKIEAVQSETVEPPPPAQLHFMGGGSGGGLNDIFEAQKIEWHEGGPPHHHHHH", "experiment": "competition ELISA on coated human Notch1 NRR_Avi_His; competitor 0.8 nM biotinylated rat 438", "description": "(§1) In a similar manner as described for recombinant protein or cell based ELISAs, 96 well cell culture plates were either coated with Notch1 NRR-Avi_His protein (hi-bound co-Star plates), or seeded with full length Notch1 expressing U-2 OS cells (cell culture plate, Co-star), respectively.\n(§2) After incubation for 2 hours, the plates were washed, as described above, and HRP-conjugated streptavidin (Southern Biotech) diluted 1:5000 in blocking buffer was applied. Incubation with streptavidin was allowed for 30 min before the plates were washed again and developed with TMB solution for 10 minutes. Developing reaction was stopped by adding 0.18M H₂SO₄ and absorbance at 450 nm was measured. Data plotting and analyses were performed with Microsoft Excel and Graphpad-Prizm software."}, "[6]": {"target": "T1, full-length human Notch1 expressed on …", "experiment": "competition ELISA on U-2 OS cells expressing full-length human Notch1; competitor 0.8 nM biotinylated rat 438", "description": "as §1, §2"}, "Human Notch2 NRR-Fc": {"target": "T4, Human Notch2 NRR-Fc (human, UniProt Q04721 1425-1677, limits assumed)", "T4 construct": "domain: NRR region; Made in CHO-PACE cells; also called human Notch2 NRR-Fc fusion protein; not shown: human IgG1 Fc fragment", "T4 sequence (looked up)": "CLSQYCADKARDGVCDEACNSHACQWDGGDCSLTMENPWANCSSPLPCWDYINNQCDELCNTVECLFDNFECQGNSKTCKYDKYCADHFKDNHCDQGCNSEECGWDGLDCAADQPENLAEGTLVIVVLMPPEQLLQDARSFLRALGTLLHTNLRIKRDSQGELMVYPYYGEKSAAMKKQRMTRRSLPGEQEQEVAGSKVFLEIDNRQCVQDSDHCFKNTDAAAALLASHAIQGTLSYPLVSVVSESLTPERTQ", "experiment": "binding to recombinant NRR-Fc fusion protein (N/B represents non-binding)"}, "Human Notch3 NRR-Fc": {"target": "T5, Human Notch3 NRR-Fc (human, UniProt Q9UM47 1378-1643, limits assumed)", "T5 construct": "domain: NRR region; also called human Notch3 NRR-Fc fusion protein; not shown: human IgG1 Fc fragment", "T5 sequence (looked up)": "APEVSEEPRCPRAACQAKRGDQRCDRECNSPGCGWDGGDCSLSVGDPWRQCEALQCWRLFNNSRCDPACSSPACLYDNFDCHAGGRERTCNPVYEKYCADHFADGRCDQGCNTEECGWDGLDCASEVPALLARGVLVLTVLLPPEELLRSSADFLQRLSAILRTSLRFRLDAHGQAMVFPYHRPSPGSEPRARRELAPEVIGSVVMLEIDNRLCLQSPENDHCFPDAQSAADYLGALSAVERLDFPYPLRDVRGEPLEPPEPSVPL", "experiment": "binding to recombinant NRR-Fc fusion protein (N/B represents non-binding)"}, "Mouse Notch3 NRR-Fc": {"target": "T6, Mouse Notch3 NRR-Fc (mouse, UniProt Q61982 1379-1643, limits assumed)", "T6 construct": "domain: NRR region; also called mouse Notch3 NRR-Fc fusion protein; not shown: Fc part", "T6 sequence (looked up)": "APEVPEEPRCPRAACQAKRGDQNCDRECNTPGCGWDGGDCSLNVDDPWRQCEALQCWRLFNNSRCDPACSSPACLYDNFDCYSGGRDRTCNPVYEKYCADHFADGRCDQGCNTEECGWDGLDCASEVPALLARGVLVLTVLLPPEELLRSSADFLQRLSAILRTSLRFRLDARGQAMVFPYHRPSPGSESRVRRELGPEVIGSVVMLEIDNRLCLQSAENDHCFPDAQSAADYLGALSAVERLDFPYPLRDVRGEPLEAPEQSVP", "experiment": "binding to recombinant NRR-Fc fusion protein (N/B represents non-binding)"}}, "data": [{"binder": "rat 438-mIgG1 (antibody, V domains shown, also called r438-mIgG; Rat438-mlgG) VH: AVQLVESGGGLVQPGRSLKLSCTASGFTFSSFAMAWVRQAPTKGLEWVASISYGGADTYYRDSVKGRFTISRDNAKSSLYLQMDSLRSEDTSTYYCAKDLPYYGYTPFVMDAWGQGTSVTVSS VL: DIMLTQSPPTLSVTPGETISLSCRASQRINTDLHWYQQKPNESPRVLIKFASQTISGVPSRFSGSGSGTDFTLNINRVEPEDFSVYYCQQSNSWPYTFGAGTKLELK", "values": [{"measurement": "Firefly/Renilla Luminescence, human Notch1 reporter cells + 5 mM EDTA, 0.01 µg/mL antibody", "setting": "[1]", "value": 338, "unit": "Firefly/Renilla ratio"}, {"measurement": "Firefly/Renilla Luminescence, human Notch1 reporter cells + 5 mM EDTA, 0.1 µg/mL antibody", "setting": "[1]", "value": 246, "unit": "Firefly/Renilla ratio"}, {"measurement": "Firefly/Renilla Luminescence, human Notch1 reporter cells + 5 mM EDTA, 1 µg/mL antibody", "setting": "[1]", "value": 117, "unit": "Firefly/Renilla ratio"}, {"measurement": "Firefly/Renilla Luminescence, human Notch1 reporter cells + 5 mM EDTA, 10 µg/mL antibody", "setting": "[1]", "value": 54.3, "unit": "Firefly/Renilla ratio"}, {"measurement": "Firefly/Renilla Luminescence, human Notch1 reporter cells + 5 mM EDTA, 30 µg/mL antibody", "setting": "[1]", "value": 46.9, "unit": "Firefly/Renilla ratio"}, {"measurement": "IC50, human Notch1 reporter gene co-culture assay (DLL4-HEK293)", "setting": "[2]", "value": 0.68, "unit": "nM"}, {"measurement": "IC50, mouse Notch1 reporter gene co-culture assay (DLL4-HEK293)", "setting": "[3]", "value": 0.71, "unit": "nM"}, {"measurement": "binding result", "setting": "[4]", "value": "no binding"}, {"measurement": "EC50", "setting": "[5]", "value": 1.5, "unit": "nM"}, {"measurement": "EC50", "setting": "[6]", "value": 3.6, "unit": "nM"}]}, {"binder": "humanized 351 VH1.0/VL1.1 (antibody, human IgG1, kappa, V domains shown, full chains (VH1.0)-hIgG1-3M and (VL1.1)-hkappa) VH: EVQLVESGGGLVQPGGSLRLSCAASGFTFSHYGMNWVRQAPGKGLEWVASISRSGSYIRYVDTVKGRFTISRDNAKNSLYLQMNSLRAEDTAVYYCAREGQFGDYFEYWGQGTLVTVSS VL: DIQMTQSPSSLSASVGDRVTITCRASQKISTNLHWYQQKPGKAPKILIKYASQTISGVPSRFSGSGSGTDFTLTISSLQPEDFATYYCQQTNSWPLTFGGGTKVEIKR", "values": [{"measurement": "binding result", "setting": "Human Notch2 NRR-Fc", "value": "no binding"}, {"measurement": "binding result", "setting": "Human Notch3 NRR-Fc", "value": "no binding"}, {"measurement": "binding result", "setting": "Mouse Notch3 NRR-Fc", "value": "no binding"}]}]}
